Data from paper PMC2172667 (The Journal of Cell Biology, 2003).

Target: the molecule itself
Test: AUC + SEC

B1: his-EPLIN-α (natural protein)
chain: MENCLGESRHEVEKSEISENTDASGKIEKYNVPLNRLKMMFEKGEPTQTKILRAQSRSASGRKISENSYSLDDLEIGPGQLSSSTFDSEKNESRRNLELPRLSETSIKDRMAKYQAAVSKQSSSTNYTNELKASGGEIKIHKMEQKENVPPGPEVCITHQEGEKISANENSLAVRSTPAEDDSRDSQVKSEVQQPVHPKPLSPDSRASSLSESSPPKAMKKFQAPARETCVECQKTVYPMERLLANQQVFHISCFRCSYCNNKLSLGTYASLHGRIYCKPHFNQLFKSKGNYDEGFGHRPHKDLWASKNENEEILERPAQLANARETPHSPGVEDAPIAKVGVLAASMEAKASSQQEKEDKPAETKKLRIAWPPPTELGSSGSALEEGIKMSKPKWPPEDEISKPEVPEDVDLDLKKLRRSSSLKERSRPFTVAASFQSTSVKSPKTVSPPIRKGWSMSEQSEESVGGRVAERKQVENAKASKKNGNVGKTTWQNKESKGETGKRSKEGHSLEMENENLVENGADSDEDDNSFLKQQSPQEPKSLNWSSFVDNTFAEEFTTQNQKSQDVELWEGEVVKELSVEEQIKRNRYYDEDEDEE
B1 was tested, and the “stoichiometry N” value was about 8 polypeptides.
